Results taken from patent publication US20190194268A1 (DONALD DANFORTH PLANT SCIENCE CENTER, published 2019).

What was measured:
F. graminearum PH-1 = format: cell-based, Fusarium graminearum; details: γ-core motif variants
F. graminearum = format: cell-based, Fusarium graminearum; details: γ-core motif variants

B1: MtDef5FL1_V1 (other)
chain: KLCQAASTTWSGPCLNTGNCKRQCINVEHATFGACAAQGFGFACFCYKKCAPKKVEPKLCEAASKTWSGPCLISGNCKRQCINVEHATSGACAAQGIGFACFCKKKC
notes: Alanine variant expressed in P. pastoris; also called MtDef5FL1 γ-core motif variant V1
- reduction in antifungal activity against F. graminearum relative to wild-type MtDef5FL1 (F. graminearum PH-1): 4 fold
- ability to permeabilize the plasma membrane (SG uptake) compared with wild-type MtDef5FL1 (F. graminearum): lost its ability to permeabilize the fungal plasma membrane almost completely
